The data set in a line: protein stability index of a GFP-peptide fusion (yeast GPS) (PSI 1-4); higher = more stable; sorted into four equal gates, so the index is relative within each strain. Summed up:
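The protein stability index combines read frequencies across sorting gates, each weighted by its gate number and then summed. To obtain those frequencies, a pooled yeast library of GFP fusions to tiled 17-residue yeast protein peptides, on a plasmid also expressing Cherry, was grown to mid-log phase in leucine-free medium. The cells were sorted into four equal gates by GFP/Cherry ratio before plasmid amplification by PCR and Illumina sequencing.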

From the supplement of paper PMC9732359 come the findings set out here.

± gives the uncertainty stated by the source.

On to LCDIDEVSDFDEMYELT [DIB1], for which the protein stability index reads like this: (doa10∆) 2.43 ± 0.19; (pdr5∆) 3.08 ± 0.1; (san1∆) 2.65 ± 0.12; (ubr1∆) 1.9 ± 0.16.
As to EINTALNTLLVTSADSN [SWI1], the protein stability index stood at 2.05 ± 0.065 (doa10∆), 2.16 ± 0.048 (pdr5∆), 2.38 ± 0.064 (san1∆) and 1.74 ± 0.065 (ubr1∆).
The corresponding values for SNNDEDDKDCTIKISTN [RGR1] are 2.94 ± 0.063, 3.13 ± 0.062, 2.89 ± 0.054 and 3 ± 0.054.
As to KEKYGLAVSTILGKNFD [SMC1], the protein stability index by setting is: (doa10∆) 2.98 ± 0.07; (pdr5∆) 2.82 ± 0.066; (san1∆) 2.69 ± 0.057; (ubr1∆) 2.58 ± 0.05.
For ENGERKLYDAKRYTSEG [YMR129W/POM152] the same measures were 3.35 ± 0.12, 2.92 ± 0.1, 2.96 ± 0.1 and 3.29 ± 0.085.
For SLHTKNVFGTLQRHSGI [YLR018C/POM34] the same measures were 2.56 ± 0.066, 2.5 ± 0.071, 2.31 ± 0.15 and 2.97 ± 0.06.
The corresponding values for FAKEKLTKKEKKEANLF [RPL6A] are 3.02 ± 0.072, 3.08 ± 0.08, 3.19 ± 0.073 and 3.14 ± 0.05.
IDNGTGRTGNGNMGITT [MED6] came in with a protein stability index (doa10∆) of 2.92 ± 0.12, a protein stability index (pdr5∆) of 2.98 ± 0.061, a protein stability index (san1∆) of 3.25 ± 0.067 and a protein stability index (ubr1∆) of 3.31 ± 0.043.
For the sequence AVNLLNCPHSDSTQLLE [SSN2], the protein stability index by setting is: (doa10∆) 2.67 ± 0.15; (pdr5∆) 3.3 ± 0.092; (san1∆) 3.51 ± 0.15; (ubr1∆) 2.9 ± 0.072.
The corresponding values for FNVEYFAKEKLTKKEKK [RPL6A] are 2.23 ± 0.084, 1.68 ± 0.066, 1.44 ± 0.12 and 1.9 ± 0.073.
For SAAKYKDMKLLRYYKNI [NUT1] the same measures were 1.83 ± 0.059, 2.2 ± 0.06, 2.23 ± 0.079 and 1.99 ± 0.04.
The corresponding values for ISEEETTVKPLFQNVPE [YAR002W/NUP60] are 3.01 ± 0.069, 3.25 ± 0.068, 3.23 ± 0.043 and 3.01 ± 0.058.
In the case of ACVPLLPPPEDVAFLKT [RPN1], the protein stability index came out at 2.65 ± 0.053 (doa10∆), 2.4 ± 0.053 (pdr5∆), 2.79 ± 0.043 (san1∆) and 2.65 ± 0.048 (ubr1∆).
For SCTKCPQIVVPDAQNEL [DIS3] the same measures were 2.17 ± 0.05, 2.42 ± 0.04, 2.48 ± 0.057 and 2.34 ± 0.059.
Consider INHEDGFIETTELLNIY [RPN3], for which the protein stability index is 2.97 ± 0.079 (doa10∆), 2.93 ± 0.1 (pdr5∆), 3.09 ± 0.072 (san1∆) and 3.19 ± 0.066 (ubr1∆).
The corresponding values for IAEIKKTPLLKQYLSAS [RPL6A] are 2.65 ± 0.063, 2.47 ± 0.065, 2.31 ± 0.065 and 2.25 ± 0.047.
For NSTTSGGLFGNKVGSTG [YGR119C/NUP57] the same measures were 3.17 ± 0.13, 3.47 ± 0.19, 3.21 ± 0.071 and 3.29 ± 0.17.
The corresponding values for DYISGISVGLYDTTPLL [SKI6] are 2.42 ± 0.12, 2.28 ± 0.1, 1.84 ± 0.084 and 2.26 ± 0.13.
For LEHPYGKEVEVLMETKN [SNU114], the protein stability index by setting is: (doa10∆) 2.26 ± 0.083; (pdr5∆) 2.98 ± 0.068; (san1∆) 2 ± 0.1; (ubr1∆) 2.21 ± 0.057.
For GSGAPVYLTAVLEYLAA [HTA1] the same measures were 1.64 ± 0.076, 1.7 ± 0.077, 1.55 ± 0.12 and 1.75 ± 0.045.
The corresponding values for LLKQYPKDSSSTFREWK [YJR042W/NUP85] are 2.54 ± 0.045, 2.6 ± 0.048, 2.71 ± 0.038 and 2.81 ± 0.042.
